Reference: paper PMC7335806, “Molecular mechanisms that regulate export of the planar cell-polarity protein Frizzled-6 out of the endoplasmic reticulum” (The Journal of Biological Chemistry, 2020)

Key:
Test in all cases: pull-down; peptides (5 nmol) covalently coupled to thiopyridone-Sepharose 6B beads via the C-terminal cysteine; 2 μg purified His-tagged Sar1A preincubated with 500 μM GTPγS in HK buffer (100 mM KCl, 20 mM Hepes pH 7.2); 1 h at 4 °C; immunoblotting
Details in all cases: both partners purified
[1] = target: T1, His-tagged human Sar1A^(Δ2-17, H79G) (human, UniProt Q9NR31 10-198, Δ2-17 | H79G)
T1 construct: Sar1A, human, H79G, depleted of its N-terminal amphipathic helix (Δ2-17); preincubated with GTPγS; also called Sar1A^(Δ2-17, H79G)-His; Sar1A (Δ2-17, H79G)-His; source: recombinant (cloned into pET-28a), purified; not shown: His, C-terminal, kept
T1 sequence (Q9NR31 18-198 H79G): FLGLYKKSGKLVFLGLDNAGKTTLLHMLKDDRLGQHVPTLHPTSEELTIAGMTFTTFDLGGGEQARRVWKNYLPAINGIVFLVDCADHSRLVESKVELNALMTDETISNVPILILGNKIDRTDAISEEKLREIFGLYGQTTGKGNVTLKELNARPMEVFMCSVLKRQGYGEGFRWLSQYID

[2] = target: T2, Sar1A (Δ2-17, E62A, E63A, H79G) (human, UniProt Q9NR31 10-198, Δ2-17 | E62A | E63A | H79G)
T2 construct: Sar1A, human, Δ2-17, H79G with E62A and E63A; preincubated with GTPγS; also called Sar1A (Δ2-17, H79G, E62A, E63A)-His; source: recombinant, purified; not shown: His, C-terminal, kept
T2 sequence (Q9NR31 18-198 E62A/E63A/H79G): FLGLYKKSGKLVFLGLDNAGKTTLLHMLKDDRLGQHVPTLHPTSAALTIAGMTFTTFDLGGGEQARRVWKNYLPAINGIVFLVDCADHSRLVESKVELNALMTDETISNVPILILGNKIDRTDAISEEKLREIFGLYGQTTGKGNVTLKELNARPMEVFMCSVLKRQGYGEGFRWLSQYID

[3] = target: T3, Sar1A (Δ2-17, H79G, D198A) (human, UniProt Q9NR31 10-198, Δ2-17 | H79G | D198A)
T3 construct: Sar1A, human, Δ2-17, H79G with D198A; preincubated with GTPγS; also called Sar1A bearing the D198A mutation; source: recombinant, purified
T3 sequence (Q9NR31 18-198 H79G/D198A): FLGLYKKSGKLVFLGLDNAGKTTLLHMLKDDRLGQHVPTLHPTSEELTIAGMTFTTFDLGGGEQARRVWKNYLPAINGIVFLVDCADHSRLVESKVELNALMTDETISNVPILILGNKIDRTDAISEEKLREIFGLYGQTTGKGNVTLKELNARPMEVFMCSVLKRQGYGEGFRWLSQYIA

Measured: binding result

B1: RRFR peptides (first intracellular loop of Fzd6) (peptide)
peptide: VRRFRYPERPC
notes: first intracellular loop of Fzd6 with the polybasic motif RRFR; added C-terminal cysteine residue, used to couple the peptide to thiopyridone-Sepharose 6B beads; Covalently linked to thiopyridone-Sepharose 6B through the added C-terminal cysteine; source: synthetic peptide, bought: GenScript
binds: all assays above
